Measurements published in patent publication US9290794B2, “Mutant protease biosensors with enhanced detection characteristics” (PROMEGA CORPORATION, priority 2010, dated 2016).

Legend:
caspase-3 [1] = experiment: Purified HQ:CBS:HT from E. coli immobilized on solid support, activation by Caspase-3; assay type: biochemical
caspase-3 [2] = experiment: CBS expressed in E. coli, HisLink purification fractions, caspase-3 cleavage reaction; assay type: biochemical
Protocol: The CBS variant 1A5 was cloned into a bacterial expression vector (pFNA:HQ(5×):CBS:HT(7); SEQ ID NOs:73 and 74) containing HaloTag® (C-terminal to the CBS) and a 5×HQ tag (N-terminal to CBS). The fusion protein was expressed in E. coli as follows: E. coli (KRX) was transformed with the vector. A starter culture (50 mL, LB Broth) was inoculated from a single colony and grown for 17-22 hrs at 37° C. with shaking (275 rpm). The starter culture was diluted (1:50) into induction media (500 mL, LB Broth with 0.05% glucose and 0.02% rhamnose) and growth was continued for another 17-22 hrs at 25° C. with shaking (275 rpm). The culture was divided into two 250 mL aliquots, and cells were collected by centrifugation (5,000×g for 20 min at 4° C.). One cell pellet was re-suspended in Lysis Buffer (25 mL, 50 mM HEPES (pH 7.5), 0.2× FastBreak, 2 mM DTT, 0.05% CHAPS, 50 mM Arginine, 50 mM Glutamic acid, 0.2 mg/mL Lysozyme, 10 U/mL RQ1 DNase, and Protease Inhibitors (Beckton/Dickenson Cat. No. 544779)) and incubated on ice for 30 min. After incubation, the sample was sonicated (Misonix Sonicator-3000, 4 mM total, 5 sec on, 5 sec rest, Power Setting 5). The crude lysate was clarified by centrifugation (20,000×g for 20 min at 4° C.), and the supernatant (cleared lysate) was used as the CBS source. For the caspase-3 cleavage reaction, 20 μl of the cleared lysate was mixed with 20 μL E. coli lysate expressing caspase-3 (Example XII) and incubated at room temperature for 30 min. 60 μL HEPES pH 7.5 was added, followed by the addition of 100 μL Bright-Glo Assay Reagent. Luminescence was detected as previously described above (FIG. 20).
Briefly, 25 mL of cleared lysate was made 0.5 M in NaCl (final concentration) and applied to 2 mL of settled HisLink resin that had been equilibrated with Binding Buffer (100 mM HEPES (pH7.5), 10 mM Imidazole, 500 mM NaCl). The resin was washed with 12 mL of Binding Buffer followed by washing with Elution Buffer (100 mM HEPES (pH 7.5), 1000 mM Imidazole). 1.75 mL fractions were collected.
For SDS-PAGE gel analysis, samples were labeled with CA-TAM and analyzed as described previously (FIG. 21A). For caspase-3 cleavage reaction, 20 μl of each sample was mixed with 20 μL E. coli lysate expressing Caspase-3 (Example XII) and incubated at room temperature for 30 min. 60 μL HEPES pH 7.5 was added, followed by the addition of 100 μL Bright-Glo Assay Reagent. Luminescence was detected as previously described above (Table 10 and FIG. 21B).

[3] = HisLink purification sample HSS
[4] = HisLink purification sample NSM
[5] = HisLink purification sample WASH

B1: HQ:CBS:HT: 5×HQ tag:CBS (variant 1A5):HaloTag fusion protein expressed in E. coli (SEQ ID NOs:73 and 74) (protein)
chain: MKHQHQHQAIAMPGSTGKIVPLHAVKVVDPTTGKILGPNEPGELYFKGPMIMKGYYNNEEATKAIIDNDGWLRSGDIAYYDNDGHFYIVDRLKSLIKYKGYQVAPAEIEGILLQHPYIVDAGVTGIPDEAAGELPAAGVVVQTGKYLNEQIVQDYVASQVSIAKWLRGGVKFLDEIPKGSTGKIDRKVLRQMLEKHTNGSDEVDGSLKNILYGPEPFYPLEDGTAGEQMFDALSRYAAIPGCIALTNAHTKENVLYEEFLKLSCRLAESFKKYGLKQNDTIAVCSENSLQFFLPVIASLYLGIIVAPVNDKYIERELIHSLGIVKPRIVFCSKNTFQKVLNVKSKLKSIETIIILDLNEDLGGYQCLNNFISQNSDSNLDVKKFKPYSFNRDDQVASIMFSSGTTGLPKGVMLTHKNIVARFSIAKDPTFGNAINPTSAILTVIPFHHGFGMMTTLGYFTCGFRVVLMHTFEEKLFLQSLQDYKVESTLLVPTLMAFLAKSALVEKYDLSHLKEIASGGAPLSKEIGEMVKKRFKLNFVRQGYGLTETTSAVLITPKGVSLEPTTEDLYFQSDNDGSEIGTGFPFDPHYVEVLGERMHYVDVGPRDGTPVLFLHGNPTSSYVWRNIIPHVAPTHRCIAPDLIGMGKSDKPDLGYFFDDHVRFMDAFIEALGLEEVVLVIHDWGSALGFHWAKRNPERVKGIAFMEFIRPIPTWDEWPEFARETFQAFRTTDVGRKLIIDQNVFIEGTLPMGVVRPLTEVEMDHYREPFLNPVDREPLWRFPNELPIAGEPANIVALVEEYMDWLHQSPVPKLLFWGTPGVLIPPAEAARLAKSLPNCKAVDIGPGLNLLQEDNPDLIGSEIARWLSTLEISG
caspase-3 [1]; column HaloLink-Plate
  BASAL luminescence: 6,880
  INDUCED luminescence: 661,597
  RESPONSE: 96
caspase-3 [1]; column HisLink
  BASAL luminescence: 193,268
  INDUCED luminescence: 40,913,496
  RESPONSE: 212
caspase-3 [2]; HisLink elution fraction E1
  BASAL luminescence: 4,221
  INDUCED luminescence: 2,951,899
  RESPONSE: 699
caspase-3 [2]; HisLink elution fraction E2
  BASAL luminescence: 193,268
  INDUCED luminescence: 40,913,496
  RESPONSE: 212
caspase-3 [2]; HisLink elution fraction E3
  BASAL luminescence: 18,454
  INDUCED luminescence: 3,287,059
  RESPONSE: 178
caspase-3 [2]; HisLink elution fraction E4
  BASAL luminescence: 1,130
  INDUCED luminescence: 215,580
  RESPONSE: 191
caspase-3 [2]; HisLink elution fraction E5
  BASAL luminescence: 270
  INDUCED luminescence: 48,068
  RESPONSE: 178
caspase-3 [2]; [3]
  BASAL luminescence: 301,304
  INDUCED luminescence: 12,875,742
  RESPONSE: 43
caspase-3 [2]; [4]
  BASAL luminescence: 176,259
  INDUCED luminescence: 5,822,003
  RESPONSE: 33
caspase-3 [2]; [5]
  BASAL luminescence: 7,734
  INDUCED luminescence: 3,706,541
  RESPONSE: 479
